Measurements taken from patent publication US20240124556A1, “KERATIN BD-3, PREPARATION METHOD THEREFOR AND PHARMACEUTICAL COMPOSITION AND USE THEREOF” (INSTITUTE OF MATERIA MEDICA, CHINESE ACADEMY OF MEDICAL …, priority 2019, published 2024).

Assays:
[1] = system: acetic acid writhing in ICR mice; experiment: Acetic acid writhing in ICR mice; format: in vivo; conditions: for Writhing incubation period: 0.6% acetic acid i.p., model group 204.2 ± 19.6; for Frequency of writhing: within 15 minutes, model group 33.3 ± 2.5
Procedure: • Animals: male ICR mice; • Drugs and reagents: aspirin, physiological saline, glacial acetic acid, protein BD-3. • Experiment grouping: • Model group; • Aspirin 300 mg/kg group; • Protein BD-3, 50 mg/kg group, 200 mg/kg group.
One day after the experimental animals adapt to the environment, Aspirin 300 mg/kg, protein BD-3 50 mg/kg, 200 mg/kg were given orally one hour in advance, and the administration volume was 10 ml/kg; Then, 0.6% acetic acid solution was injected intraperitoneally, and the incubation period (seconds) and frequency of writhing in the animal was observed within 15 minutes.
Calculate the mean and standard error of the data in each group. Compared with the model group by TTEST, P<0.05 was considered as statistically different.

[2] = system: PLO-induced epilepsy in mice; experiment: Pilocarpine (PLO) induced convulsive epilepsy in mice; format: in vivo, ICR mice; conditions: for mortality rate / Grade IV seizure rate / Cases of Grade IV / Cases of deaths: PLO 225 mg/kg i.p.; for mortality rate / Cases of deaths: model group 0; for Grade IV seizure rate: model group 80%; for Cases of Grade IV / Cases of deaths: of 10 mice; for Cases of Grade IV: 30 min observation, model group 8; for Grade IV seizure incubation period / Grade II seizure incubation period / Grade III seizure incubation period: mean ± SEM; for Grade IV seizure incubation period: maximum recorded 1800 seconds, model group 894 ± 164; for Grade II seizure incubation period: model group 86 ± 5; for Grade III seizure incubation period: model group 142 ± 6
Procedure: • Animals: male ICR mice; • Drugs: Pilocarpine HCl (PLO, pilocarpine, pilocarpine hydrochloride), Diazepam (diazepam tablets), protein BD-3. • Experiment grouping: • Model group: • Diazepam 2 mg/kg group; • Protein BD-3, 50 mg/kg group, 200 mg/kg group.
The drug was administered once in the afternoon the day before modeling, PLO-225 mg/kg (modeling agent) was injected intraperitoneally 1 hour after the test drug was administered intragastrically on the day of modeling. And positive drug can be administered once 20 minutes before modeling. Observe for 30 minutes after PLO injection.
Observation indicators: (1)Seizure situation: the time of seizures from Grade II to Grade IV; (2)the time to death.
Seizure grade: Refer to Racine grading standard: Grade 0: No response; Grade I: manifested as twitching of facial muscles or the corners of the mouth; Grade II: can nod; Grade III: twitching of one limb; Grade IV: rigidity or body twitching; Grade V: generalized epilepsy (generalized tonic seizures).
Count the number of Grade IV seizures and deaths in each group of mice in the experiment; Grade II, III and IV incubation period. […] Chi-square test was used for statistics of the number of cases. The mean value and standard error of the incubation period were calculated, and TTEST was used to compare the model group with other groups. P<0.05 was considered as a significant difference.

[3] = system: lipopolysaccharide (LPS) induced fever model in SD rats; experiment: Lipopolysaccharide (LPS) induced fever in SD rats; format: in vivo; conditions: for Body temperature 2 hours after modeling / Body temperature 4 hours after modeling / Body temperature 6 hours after modeling / Body temperature 8 hours after modeling: LPS 20 μg/kg i.p.; for Body temperature 2 hours after modeling: model group 37.6 ± 0.1; for Body temperature 4 hours after modeling: model group 37.8 ± 0.1; for Body temperature 6 hours after modeling / Body temperature 8 hours after modeling: model group 37.8 ± 0.2
Procedure: • Animals: 230-260 grams of male SD rats; • Drugs: lipopolysaccharide (LPS, SIGMA L-2880), aspirin (SIGMA A2093), protein BD-3; Instruments: electronic balance (SARTORIUS BP121S type), electronic clinical thermometer (CITIZEN CT-513W type). • Experiment grouping: • Normal control group; • Model group: lipopolysaccharide fever model; • Positive control group: Aspirin 300 mg/kg group; • Protein BD-3, 10 mg/kg group, 50 mg/kg group. • Method: the method of intraperitoneal injection of Lipopolysaccharide to replicate rat fever model.
Preparation of experimental animals: After the experimental animals adapt to the experimental environment (temperature 22° C.±2° C., relative humidity 50%±2%) for 1 day. Pre-adaptation to measure rectal temperature at 8:00 and 15:00, rats were fasted and water was taken freely 12 h before experiment, and let the animal to empty its feces before measuring the rectal temperature. Apply petroleum jelly to the electronic thermometer probe before each temperature measurement. Insert the rat rectum 2 cm (can be marked at 2 cm to ensure that the depth of each insertion is consistent), and record the body temperature after the reading is stable.
Intraperitoneal injection of lipopolysaccharide to replicate rat fever model: The body temperature of the rats was measured before modeling. Qualified rats with a body temperature of 36.2-37.3° C. were selected and randomly divided into groups with 8 rats in each group. After oral administration of aspirin and different doses of protein BD-3, lipopolysaccharide (20 μg/kg, 2 ml/kg) was injected intraperitoneally immediately, and the normal control group was injected intraperitoneally with an equal volume of normal saline. The body temperatures of the rats were monitored after 2 hours for a total of 8 hours.
According to the body temperature measured at each time point on the day of the experiment, calculate the mean, standard deviation and standard error of the body temperature of each group of rats. The data of each group was compared with TTEST, and P<0.05 was considered as a significant difference.

[4] = summary statement, no dose given

B1: BD-3: recombinant keratin, amino acid sequence SEQ ID NO:1, expressed in E. coli, band around 43 kD; tested material prepared in Example 4 (protein, listed as Bos taurus)
chain: MSYSCCLPNLSFRSSCSSRPCVPSSCCGTTLPGACNIPANVGSCNWFCEGSFNGSEKETMQFLNDRLASYLEKVRQLERDNAELESRILERSQQKILANKAENARLVVQIDNAKLAADDFRTKYQTELGLRQLVESDINGLRRILDELTLCKSDLEAQVESLKEELICLKQNHEQEVNTLRSQLGDRLNVEVDAAPTVDLNRVLNETRAQYEALVETNRRDVEEWYIRQTEELNKQVVSSSEQLQSYQAEIIELRRTVNALEVELQAQHNLRDSLENTLTETEARYSCQLAQVQGLIGNVESQLAEIRSDLERQNQEYQVLLDVRARLECEINTYRGLLDSEDCKLPCNPCATTNASSVGSCVTNPCTPCGPRSRFGPCNTFGC
Writhing incubation period ([1]; BD-3 50 mg/kg oral): 221.5 ± 28.4 s
Frequency of writhing ([1]; BD-3 50 mg/kg oral): 24.7 ± 3.0 times
Times of writhing vs model group (in words) ([1]; BD-3 50 mg/kg, P<0.05): can significantly reduce the times of writhing in mice
Writhing incubation period ([1]; BD-3 200 mg/kg oral): 189.8 ± 10.4 s
Frequency of writhing ([1]; BD-3 200 mg/kg oral): 29.5 ± 4.7 times
Summary: analgesic effect, writhing (in words) [1, 4]: can significantly reduce the number of writhing times in mice
Epilepsy Grade IV incubation period vs model group (in words) ([2]; BD-3 50 mg/kg): statistically different from the model group
mortality rate ([2]; BD-3 50 mg/kg intragastric): 0
Grade IV seizure rate ([2]; BD-3 50 mg/kg intragastric): 30%
Cases of Grade IV ([2]; BD-3 50 mg/kg intragastric): 3
Cases of deaths ([2]; BD-3 50 mg/kg intragastric): 0
Grade IV seizure incubation period ([2]; BD-3 50 mg/kg): 1573 ± 138 s
Grade II seizure incubation period ([2]; BD-3 50 mg/kg): 91 ± 6 s
Grade III seizure incubation period ([2]; BD-3 50 mg/kg): 155 ± 12 s
Epilepsy Grade III incubation period vs model group (in words) ([2]; BD-3 200 mg/kg): statistically different from the model group
mortality rate ([2]; BD-3 200 mg/kg intragastric): 0
Grade IV seizure rate ([2]; BD-3 200 mg/kg intragastric): 60%
Cases of Grade IV ([2]; BD-3 200 mg/kg intragastric): 6
Cases of deaths ([2]; BD-3 200 mg/kg intragastric): 0
Grade IV seizure incubation period ([2]; BD-3 200 mg/kg): 1181 ± 203 s
Grade II seizure incubation period ([2]; BD-3 200 mg/kg): 99 ± 5 s
Grade III seizure incubation period ([2]; BD-3 200 mg/kg): 183 ± 12 s
Summary: effect on epilepsy incubation period, PLO model (in words) [2, 4]: can significantly prolong the incubation period of class III and class IV epilepsy in mice
Body temperature 2 hours after modeling ([3]; BD-3 10 mg/kg oral): 37.6 ± 0.1 °C
Body temperature 4 hours after modeling ([3]; BD-3 10 mg/kg oral): 37.9 ± 0.2 °C
Body temperature 6 hours after modeling ([3]; BD-3 10 mg/kg oral): 37.9 ± 0.2 °C
Body temperature 8 hours after modeling ([3]; BD-3 10 mg/kg oral): 37.6 ± 0.2 °C
Body temperature 2 hours after modeling ([3]; BD-3 50 mg/kg oral): 37.2 ± 0.2 °C
Body temperature 4 hours after modeling ([3]; BD-3 50 mg/kg oral): 37.3 ± 0.2 °C
Body temperature 6 hours after modeling ([3]; BD-3 50 mg/kg oral): 37.7 ± 0.3 °C
Body temperature 8 hours after modeling ([3]; BD-3 50 mg/kg oral): 37.6 ± 0.2 °C
Effect on body temperature of model rats (in words) ([3]; BD-3 50 mg/kg, at 2 hours and 4 hours after modeling, P<0.05 vs model group): can reduce the body temperature of model rats
Summary: antipyretic effect in LPS fever model (in words) [3, 4]: has a significant effect of reducing body temperature rise at 2 hours and 4 hours after modeling
